Test results taken from the supplement of paper PMC9233669.
This sample holds only a part of the variants without activity.

Tests used:
biotinyl-Ile-oxazolone = experiment: self-aminoacylation, catalytic enhancement (BIO) (fold over background); higher = more active; k-Seq, kA / k0A0; sequences stand for … in GGGAAUGGAUCCACAUCUACGAAUUC…UUCACUGCAGACUUGACGAAGCUG
In short: (§1)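 Mutagenized RNA pools with a 21-nt variable region (0.43 μM) reacted with each biotinyl-aminoacyl-oxazolone at 2–1250 μM. Reactions ran in 50 μL HEPES/NaCl/KCl/MgCl2/CaCl2 buffer with 5% acetonitrile, pH 6.9–7.0, for 90 minutes at room temperature. Streptavidin-captured RNA was quantified by triplicate qPCR and Illumina sequencing, and per-sequence fraction reacted was fit to a pseudo-first-order model with 1000 bootstraps. Catalytic enhancement is median kA divided by the uncatalyzed rate, the low-activity peak of a bimodal Gaussian fit.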

biotinyl-Met-oxazolone = experiment: self-aminoacylation, catalytic enhancement (BMO) (fold over background); higher = more active; k-Seq, kA / k0A0; sequences stand for … in GGGAAUGGAUCCACAUCUACGAAUUC…UUCACUGCAGACUUGACGAAGCUG
In short: as §1

biotinyl-Leu-oxazolone = experiment: self-aminoacylation, catalytic enhancement (BLO) (fold over background); higher = more active; k-Seq, kA / k0A0; sequences stand for … in GGGAAUGGAUCCACAUCUACGAAUUC…UUCACUGCAGACUUGACGAAGCUG
In short: as §1

biotinyl-Val-oxazolone = experiment: self-aminoacylation, catalytic enhancement (BVO) (fold over background); higher = more active; k-Seq, kA / k0A0; sequences stand for … in GGGAAUGGAUCCACAUCUACGAAUUC…UUCACUGCAGACUUGACGAAGCUG
In short: as §1

biotinyl-Trp-oxazolone = experiment: self-aminoacylation, catalytic enhancement (BWO) (fold over background); higher = more active; k-Seq, kA / k0A0; sequences stand for … in GGGAAUGGAUCCACAUCUACGAAUUC…UUCACUGCAGACUUGACGAAGCUG
In short: as §1

biotinyl-Phe-oxazolone = experiment: self-aminoacylation, catalytic enhancement (BFO) (fold over background); higher = more active; k-Seq, kA / k0A0; sequences stand for … in GGGAAUGGAUCCACAUCUACGAAUUC…UUCACUGCAGACUUGACGAAGCUG
In short: as §1

Sequence	self-aminoacylation (biotinyl-Ile-oxazolone)	self-aminoacylation (biotinyl-Met-oxazolone)	self-aminoacylation (biotinyl-Leu-oxazolone)	self-aminoacylation (biotinyl-Val-oxazolone)	self-aminoacylation (biotinyl-Trp-oxazolone)	self-aminoacylation (biotinyl-Phe-oxazolone)
AUUCACCUUGGGCAUCGGGUG [Fam2.2 aminoacylation ribozyme variant]	3.58	3.99	4.33	3.69	5.41	22.9
AUAACCGUGGUCAUCGAGUGA [Fam2.1 aminoacylation ribozyme variant]	2.64	5.06	5.49	2.85	6.26	25.1
AAUACCCUGGUCAGCGAGUGA [Fam2.1 aminoacylation ribozyme variant]	2.36	4.02	4.46	2.61	5.5	3.78
CUACUUCGAUCAAUCGGUCUG [Fam1A.1 aminoacylation ribozyme variant]	0.591	0.528	0.585	0.584	0.434	0.778
CUACUUAAAUCAAUCGGUCUG [Fam1A.1 aminoacylation ribozyme variant]	0.887	0.702	0.793	0.91	0.691	0.911
AAUUUUGCUAAUAGCCGCAAG [Fam3.1 aminoacylation ribozyme variant]	1.74	1.33	1.49	1.44	1.31	1.7
AUUCACCUAGGUCGUCGGGCG [Fam2.2 aminoacylation ribozyme variant]	3.39	2.56	4.5	3.2	2.76	15.2
CUCCUUCAAAAAAUCGGUCUG [Fam1A.1 aminoacylation ribozyme variant]	1.16	1.09	1.3	1.01	9.62	11.8
CUAGAUCAAACAAUCGGUCUG [Fam1A.1 aminoacylation ribozyme variant]	0.703	0.578	0.708	0.798	1.22	2.24
CUACUUCAAACAAUCGGUAUU [Fam1A.1 aminoacylation ribozyme variant]	0.854	0.852	0.74	0.828	0.759	1.15
AAGUUUGCUAAUAGACUCAAG [Fam3.1 aminoacylation ribozyme variant]	0.416	0.332	0.313	0.427	0.449	0.758
CUACGUUAAACAAUCGGUCUG [Fam1A.1 aminoacylation ribozyme variant]	1.19	1.16	1.17	1.19	1.05	0.927
CCACACUUUAAGCAAUCGGUG [Fam1B.1 aminoacylation ribozyme variant]	2.93	3.89	5.4	2.38	3.9	22.9
CUACCUCACACAAUCGGUCUG [Fam1A.1 aminoacylation ribozyme variant]	0.861	0.672	0.988	1.06	0.744	1.81
AUUGGCCUGGUCAUCGAGUGA [Fam2.1 aminoacylation ribozyme variant]	4.1	6.17	7.35	4.31	9.15	30.7
CAGUUUGCGAAUAGUCGCAAG [Fam3.1 aminoacylation ribozyme variant]	1.79	1.93	2.67	1.59	2	5.57
AUUCACCUAGGGAAUCGGGUG [Fam2.2 aminoacylation ribozyme variant]	3.54	5.05	7.44	3.23	4.86	36.4
CUACUUCUUACAAUCGGUCUG [Fam1A.1 aminoacylation ribozyme variant]	0.767	0.812	0.624	0.707	0.524	0.695
AUAACCCUGGUCAUCGGGUGA [Fam2.1 aminoacylation ribozyme variant]	12.1	31.3	35.6	13.4	35.3	183
CCUCACUUCAACCAAUCGGUC [Fam1B.1 aminoacylation ribozyme variant]	1.28	1.35	1.84	1.27	27.6	57.5
CUACUUCAAACAACUGGUCUG [Fam1A.1 aminoacylation ribozyme variant]	0.734	0.603	0.678	0.654	0.661	0.753
AUUACCCAGGUCAUAGAGUGA [Fam2.1 aminoacylation ribozyme variant]	4.85	10.7	9.64	5.27	11.3	37.5
AUUCCCCCGGUCAUCGAGUGA [Fam2.1 aminoacylation ribozyme variant]	4.4	8.57	8.86	4.37	10.7	59.9
AUUAUCCUGGUCCUCGAGUGA [Fam2.1 aminoacylation ribozyme variant]	2.4	4.56	5.19	2.33	6.54	21.9
CUUCACCUAGGUCAUCGGGGG [Fam2.2 aminoacylation ribozyme variant]	2.31	2.35	1.86	2.37	3.57	3.92
AUUACACUGGUCAACGAGUGA [Fam2.1 aminoacylation ribozyme variant]	2.78	5.3	5.07	2.79	7.54	22.6

Sequence	self-aminoacylation (biotinyl-Ile-oxazolone)	self-aminoacylation (biotinyl-Met-oxazolone)	self-aminoacylation (biotinyl-Leu-oxazolone)	self-aminoacylation (biotinyl-Val-oxazolone)	self-aminoacylation (biotinyl-Trp-oxazolone)	self-aminoacylation (biotinyl-Phe-oxazolone)
AUUACCCUGGUCAUCAAUUGA [Fam2.1 aminoacylation ribozyme variant]	0.823	0.948	0.963	0.92	0.826	0.681
AAGUAUGCUAACAGUCGCAAG [Fam3.1 aminoacylation ribozyme variant]	1.82	1.42	1.45	1.54	4.66	13.3
AUUCACCUAGGUCAUCCGGGG [Fam2.2 aminoacylation ribozyme variant]	3.2	3.21	4.27	2.84	3.23	7.28
AUCAACCUAGGUCAUCGGGUG [Fam2.2 aminoacylation ribozyme variant]	4.88	7.11	10.2	5.02	7.85	36.3
CCACACUUCAAGCUAGCGGUC [Fam1B.1 aminoacylation ribozyme variant]	0.921	0.714	0.984	0.911	0.75	0.856
CCACAUUUCAAUCAAUCGGUC [Fam1B.1 aminoacylation ribozyme variant]	1.14	1.09	1.07	1.14	6.51	12.7
CUUACCCUGGUAAUCGAGUGA [Fam2.1 aminoacylation ribozyme variant]	3.22	6.18	7.47	3.18	8.08	24.3
AUUACCUUUGUCAUCGAGUGA [Fam2.1 aminoacylation ribozyme variant]	3.25	5.22	6.05	3.06	6.87	20
AAGUUCGCUAAUAGUCGCGAG [Fam3.1 aminoacylation ribozyme variant]	3.31	2.09	2.18	2.51	4	15.2
CCACACUUCAAGCAAUCGCUC [Fam1B.1 aminoacylation ribozyme variant]	1.33	1.3	1.27	1.44	1.29	1.2
CUACUUGAAAUAAUCGGUCUG [Fam1A.1 aminoacylation ribozyme variant]	0.785	0.801	0.68	0.784	0.619	0.723
AUGCACCUAGGUCAUCGGGGG [Fam2.2 aminoacylation ribozyme variant]	2.4	2.72	2.64	2.33	3.3	7.48
AAGUUUGCUAAUAGUCACCAG [Fam3.1 aminoacylation ribozyme variant]	0.949	0.962	0.762	0.997	1.21	2.77
CUACUUGAAACAAUCGGUAUG [Fam1A.1 aminoacylation ribozyme variant]	0.654	0.67	0.838	0.699	0.504	0.5
AUUACCAUGGUCAUCGAGUGU [Fam2.1 aminoacylation ribozyme variant]	2.55	4.53	4.6	2.78	6.03	4.69
AUUACUCUGGGCAUCGAGUGA [Fam2.1 aminoacylation ribozyme variant]	3.71	6.39	6.57	3.11	7.68	41.2
AAGUUUGCAAUUAGUCGCAAG [Fam3.1 aminoacylation ribozyme variant]	1.08	0.922	0.909	0.898	0.6	0.786
AUUCACCUAGGUCUUGGGGUG [Fam2.2 aminoacylation ribozyme variant]	5.73	11.2	13.8	6.44	9.73	77.3
AUUCACCUAGGUCAGCGGGUU [Fam2.2 aminoacylation ribozyme variant]	2.56	1.65	2.42	2.15	1.94	4.6
AUUCACCUAGGUCAUAUGGUG [Fam2.2 aminoacylation ribozyme variant]	2.25	3.44	4.8	2.25	3.68	20.3
AUUACCGUGGUCAGCGAGUGA [Fam2.1 aminoacylation ribozyme variant]	3.02	4.54	4.64	3.1	6.24	19.3
CCGCACUUCAAGCAACCGGUC [Fam1B.1 aminoacylation ribozyme variant]	1.47	1.47	1.1	1.54	1.56	1.29
AUUCACCUAGUUCCUCGGGUG [Fam2.2 aminoacylation ribozyme variant]	2.06	2.42	3.31	2.06	2.63	19.7
AUUCACCGAGGUCAUCGGCUG [Fam2.2 aminoacylation ribozyme variant]	2.29	2.26	2.38	2.26	1.93	12.4
AUUCACCUAGAUCUUCGGGUG [Fam2.2 aminoacylation ribozyme variant]	2.18	3.09	3.75	2.54	2.8	12.3
